According to paper PMC9006252:

Molecular target: Plasmodium falciparum plasmoredoxin (Plasmodium falciparum)
Test: SEC; PfPlrx without TCEP, at least partially oxidized

stoichiometry N: 2
Substance: Plasmodium falciparum plasmoredoxin (natural protein)
